Target: the molecule itself
Assay: SEC-MALS

B1: Strep-tagged glucose-6-phosphate dehydrogenase (G6PDH) from Synechocystis (enzyme)
chain: not shown
stoichiometry N: 4
